Experiment [1] addresses T1, GST-GSK3β (UniProt P49841 1-420). Kind of experiment: pull-down.
The target in experiment [2] is T1, GST-GSK3β. Put plainly: pull-down. The source holds these as a separate data set.

Like-named read-outs stand apart in the source and are kept apart here.

T1 sequence (P49841 whole entry): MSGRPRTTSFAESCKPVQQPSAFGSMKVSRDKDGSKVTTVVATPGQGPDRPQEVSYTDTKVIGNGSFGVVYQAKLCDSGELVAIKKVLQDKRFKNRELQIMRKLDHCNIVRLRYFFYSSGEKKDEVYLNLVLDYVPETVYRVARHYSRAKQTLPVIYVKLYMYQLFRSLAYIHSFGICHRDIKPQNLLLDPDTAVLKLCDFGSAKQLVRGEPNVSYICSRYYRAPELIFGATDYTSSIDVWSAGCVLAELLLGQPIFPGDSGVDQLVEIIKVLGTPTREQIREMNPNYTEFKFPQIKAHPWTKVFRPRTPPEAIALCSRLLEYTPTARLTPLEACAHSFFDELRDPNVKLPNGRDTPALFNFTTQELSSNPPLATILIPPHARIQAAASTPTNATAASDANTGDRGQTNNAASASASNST

B1: His-eIF4E2 (natural protein, UniProt O60573 1-245, looked up)
chain: MNNKFDALKDDDSGDHDQNEENSTQKDGEKEKTERDKNQSSSKRKAVVPGPAEHPLQYNYTFWYSRRTPGRPTSSQSYEQNIKQIGTFASVEQFWRFYSHMVRPGDLTGHSDFHLFKEGIKPMWEDDANKNGGKWIIRLRKGLASRCWENLILAMLGEQFMVGEEICGAVVSVRFQEDIISIWNKTASDQATTARIRDTLRRVLNLPPNTIMEYKTHTDSIKMPGRLGPQRLLFQNLWKPRLNVP
Take B1: the binding result with GST-GSK3β [1] was “binds”.

Consider RLLFQNLWKPRL [peptide e2-I], for which, in the experiment with GST-GSK3β [2], the binding result is recorded as “binds”.

The values above are taken from paper doi:10.1101/2020.10.20.346569 (bioRxiv, 2020).
